Reference: publication PMC5454392, “Selective BET bromodomain inhibition as an antifungal therapeutic strategy” (Nature Communications, 2017)
Numbered stars: 1 amine (or outer) side, 2 acyl side, 3 side chain; on linkers, the order of the positions; unused ones are H or OH. Square brackets hold non-standard residues; d marks the D form. Ends that are not written are not given here. Arg(Me2a) = CN(C)C(=N)NCCC[C@H](N)C(=O)O; Kac = CC(=O)NCCCC[C@H](N[*:1])C(=O)[*:2]; Lys(Me3) = C[N+](C)(C)CCCC[C@H](N)C(=O)O; Arg(Me2s) = CN=C(NC)NCCC[C@H](N)C(=O)O; Lys(Me2) = CN(C)CCCC[C@H](N)C(=O)O; pS = N[C@@H](COP(=O)(O)O)C(=O)O; Cit = NC(=O)NCCC[C@H](N)C(=O)O; Lys(Me) = CNCCCC[C@H](N)C(=O)O; Me2a = not defined here

T1: CaBdf1 BD1 (GST-tagged, wild-type) (Candida albicans (strain SC5314 / ATCC …, UniProt Q5A4W8))
T1 chain: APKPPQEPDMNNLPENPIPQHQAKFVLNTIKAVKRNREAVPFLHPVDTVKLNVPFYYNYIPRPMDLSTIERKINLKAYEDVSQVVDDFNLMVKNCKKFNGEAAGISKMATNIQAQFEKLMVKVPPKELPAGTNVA

T2: CaBdf1 BD2 (GST-tagged, wild-type) (Candida albicans (strain SC5314 / ATCC …, UniProt Q5A4W8))
T2 chain: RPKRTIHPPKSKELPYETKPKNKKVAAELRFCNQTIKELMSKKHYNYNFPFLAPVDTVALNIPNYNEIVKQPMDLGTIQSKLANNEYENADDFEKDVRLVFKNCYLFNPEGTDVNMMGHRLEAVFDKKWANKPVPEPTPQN

B1: H3 1-19 (peptide)
chain: ART[Lys(Me3)]QTARKSTGGKAPRKQ
B2: H3 1-19 (peptide)
chain: ARTKQTARKSTGGKAPRKQ
modifications: A R T K Q T A Rme2a Kme3 pS pT G G K A P R K Q
B3: H4 1-19 (peptide)
chain: SGRGKGGKGLGKGGAKRHR
modifications: S G R G K G G Kac G L G K G G A K R H R
B4: H4 1-19 (peptide)
chain: SGRGKGGKGLGKGGAKRHR
modifications: S G Rme2a G Kac G G Kac G L G Kac G G A K R H R
B5: H2a 1-19 (peptide)
chain: SGRGK(Ac)QGGKARAK(Ac)AKSRSS
B6: H3 1-19 (peptide)
chain: ARTK(Me)QTAR(me2s)K(me3)STGGKAPRKQ
B7: H2B 1-19 (peptide)
chain: PDPAKSAPAPKKG[pS]KKAVT
B8: H3 1-19 (peptide)
chain: ARTKQTARKSTGGKAPRKQ
modifications: A Rme2s T Kme1 Q T A Rme2s Kac S T G G K A P R K Q
B9: H3 16-35 (peptide)
chain: PRKQLATKAARK(Ac)[pS]APATGG
B10: H3 1-19 (peptide)
chain: ARTKQTARKSTGGKAPRKQ
modifications: A Rme2s T Kac Q T A Rme2a Kme3 S T G G K A P R K Q
B11: H3 16-35 (peptide)
chain: PRKQLATKAAR(Me2a)K(Ac)[pS]APATGG
modifications: reading uncertain
B12: background 01 (peptide)
chain: K[Lys(Me)][Lys(Me2)][Lys(Me3)]K(Ac)R[Arg(Me2s)]R[Arg(Me2a)]R[Cit]K[Lys(Me)]K(Ac)[Lys(Me3)]RK
B13: H3 1-19 (peptide)
chain: ARTKQTARKSTGGKAPRKQ
modifications: A Rme2s T Kac Q T A Rme2s Kme3 S T G G K A P R K Q
B14: H3 1-19 (peptide)
chain: ARTKQTARKSTGGKAPRKQ
modifications: A R T K Q T A Rme2s Kme2 S pT G G K A P R K Q
B15: H3 1-19 (peptide)
chain: A[Arg(Me2a)]T[Kac]QTAR[Kac]STGGKAPRKQ
B16: H4 1-19 (peptide)
chain: SGRGKGGKGLGKGGAKRHR
modifications: S G Rme2a G K G G K G L G K G G A K R H R
B17: H2B 1-19 (peptide)
chain: PDPAK(Ac)SAPAPKKGSKKAVT
B18: H3 1-19 (peptide)
chain: ARTKQTARKSTGGKAPRKQ
modifications: A R T Kme2 Q T A Rme2s Kac S T G G K A P R K Q
B19: H2a 1-19 (peptide)
chain: [pS]GRGK(Ac)QGGK(Ac)ARAKAKSRSS
B20: H3 1-19 (peptide)
chain: ARTKQTARKSTGGKAPRKQ
modifications: A R T K Q T A R Kme2 S pT G G K A P R K Q
B21: H3 1-19 (peptide)
chain: ARTKQTARKSTGGKAPRKQ
modifications: A R T K Q T A Rme2a Kme3 S pT G G K A P R K Q
B22: H4 1-19 (peptide)
chain: SGRGKGGKGLGKGGAKRHR
modifications: S G Rme2a G K G G Kac G L G K G G A K R H R
B23: H3 1-19 (peptide)
chain: A[Arg(Me2s)]T[Lys(Me)]QTA[Arg(Me2a)][Lys(Me3)]STGGKAPRKQ
B24: H4 1-19 (peptide)
chain: SGRGKGGKGLGKGGAKRHR
modifications: S G R G K G G K G L G Kac G G A K R H R
B25: H3 1-19 (peptide)
chain: ARTKQTARKSTGGKAPRKQ
modifications: A Rme2a T Kme3 Q T A Rme2a Kme3 S T G G K A P R K Q

Target: T1, CaBdf1 BD1 (GST-tagged, wild-type)
Assay: histone peptide array (Active Motif MODified), 1 uM GST-tagged bromodomain, anti-GST detection, normalized mean intensity
B1 was tested, and the binding score was 0.00399. In the case of B2, the binding score is reported as 0.00326. In the case of B3, the binding score is reported as 0.0344. With B4 the binding score was 0.236. B5 gave a binding score of 0.109. For B6, the binding score was 0.00435. B7 was tested, and the binding score was 0.00326. B8 showed a binding score of 0.0344. In the case of B9, the binding score is reported as 0.0029. B10 was tested, and the binding score was 0.00471. In the case of B11, the binding score is reported as 0.0058. B12 showed a binding score of 0.00906. For B13, the binding score was 0.00834. For B14, the binding score was 0.00906. In the case of B15, the binding score is reported as 0.046. For B16, the binding score was 0.00906. With B17 the binding score was 0.00363. Work on B18 yielded a binding score of 0.0305. In the case of B19, the binding score is reported as 0.0381. Binder B20 has a binding score of 0.00544. Work on B21 yielded a binding score of 0.00653. For B22, the binding score was 0.0218. Binder B23 has a binding score of 0.0058. B24 was tested, and the binding score was 0.033. B25 gave a binding score of 0.00399.

Target: T2, CaBdf1 BD2 (GST-tagged, wild-type)
Assay: as above
B1 gave a binding score of 0.00148. With B2 the binding score was 0.0037. B3 showed a binding score of 0.027. B4 was tested, and the binding score was 0.375. B5 showed a binding score of 0.0859. Binder B6 has a binding score of 0.00407. B7 was tested, and the binding score was 0.00148. For B8, the binding score was 0.00555. B9 was tested, and the binding score was 0.00148. In the case of B10, the binding score is reported as 0.00407. B11 showed a binding score of 0.00222. B12 was tested, and the binding score was 0.00629. With B13 the binding score was 0.00555. In the case of B14, the binding score is reported as 0.00259. B15 was tested, and the binding score was 0.00851. B16 gave a binding score of 0.0215. With B17 the binding score was 0. Binder B18 has a binding score of 0.00592. B19 showed a binding score of 0.00925. B20 showed a binding score of 0.00185. B21 was tested, and the binding score was 0.00555. Binder B22 has a binding score of 0.0074. B23 gave a binding score of 0.00592. Binder B24 has a binding score of 0.00851. B25 showed a binding score of 0.00333.
